± gives the uncertainty stated by the source.
B1: SAM and SH3 domain-containing protein 1, residues 630 to 700; numbered along this chain, O94885 (parent)
chain: GRPPQPKSVEDLLDRINLKEHMPTFLFNGYEDLDTFKLLEEEDLDELNIRDPEHRAVLLTAVELLQEYDSN

Variants of: B1
Assay: abundance fitness (aPCA) (normalised: wild type 0, dead -1); higher = more abundant; growth selection in yeast, the domain comes from the species named
Settings: Homo sapiens

With GRPPQPKSVEDLLDRINLKEHMPTFLFNGYEDLDTFKLLEEEDLDELNIRDPEHRPVLLTAVELLQEYDSN as the variant, how does the abundance fitness read?
The abundance fitness was -0.772 ± 0.053.

Which abundance fitness does the source give for GRPPQPKSVEDLLDRINLKEHMPTFLFNGYEDLDTFKLLEEEDLDELNIRDPEHRNVLLTAVELLQEYDSN here?
The abundance fitness was -0.108 ± 0.04.

With GRPPQPKSVEDLLDRINLKEHMPTFLFNGYEDLDTFKLLEEEDLDELNIRDPEHRDVLLTAVELLQEYDSN as the variant, how does the abundance fitness read?
Its abundance fitness is -0.096 ± 0.046.

Which abundance fitness does the source give for GRPPQPKSVEDLLDRINLKEHMPTFLFNGYEDLDTFKLLEEEDLDELNIRDPEHRTVLLTAVELLQEYDSN here?
Its abundance fitness is -0.114 ± 0.035.

For GRPPQPKSVEDLLDRINLKEHMPTFLFNGYEDLDTFKLLEEEDLDELNIRDPEHRCVLLTAVELLQEYDSN, which abundance fitness is on record?
The abundance fitness was -0.272 ± 0.046.

Which abundance fitness does the source give for GRPPQPKSVEDLLDRINLKEHMPTFLFNGYEDLDTFKLLEEEDLDELNIRDPEHRGVLLTAVELLQEYDSN here?
The abundance fitness was -0.337 ± 0.05.

With GRPPQPKSVEDLLDRINLKEHMPTFLFNGYEDLDTFKLLEEEDLDELNIRDPEHRSVLLTAVELLQEYDSN as the variant, how does the abundance fitness read?
The abundance fitness was 0.011 ± 0.031.

For GRPPQPKSVEDLLDRINLKEHMPTFLFNGYEDLDTFKLLEEEDLDELNIRDPEHRWVLLTAVELLQEYDSN, which abundance fitness is on record?
The abundance fitness was -0.816 ± 0.086.

For GRPPQPKSVEDLLDRINLKEHMPTFLFNGYEDLDTFKLLEEEDLDELNIRDPEHREVLLTAVELLQEYDSN, which abundance fitness is on record?
Its abundance fitness is 0.085 ± 0.05.

Which abundance fitness does the source give for GRPPQPKSVEDLLDRINLKEHMPTFLFNGYEDLDTFKLLEEEDLDELNIRDPEHRRVLLTAVELLQEYDSN here?
Its abundance fitness is 0.191 ± 0.034.

Which abundance fitness does the source give for GRPPQPKSVEDLLDRINLKEHMPTFLFNGYEDLDTFKLLEEEDLDELNIRDPEHRLVLLTAVELLQEYDSN here?
The abundance fitness was -0.334 ± 0.035.

Which abundance fitness does the source give for GRPPQPKSVEDLLDRINLKEHMPTFLFNGYEDLDTFKLLEEEDLDELNIRDPEHRMVLLTAVELLQEYDSN here?
The abundance fitness was -0.213 ± 0.046.

With GRPPQPKSVEDLLDRINLKEHMPTFLFNGYEDLDTFKLLEEEDLDELNIRDPEHRHVLLTAVELLQEYDSN as the variant, how does the abundance fitness read?
The abundance fitness was -0.057 ± 0.037.

With GRPPQPKSVEDLLDRINLKEHMPTFLFNGYEDLDTFKLLEEEDLDELNIRDPEHRVVLLTAVELLQEYDSN as the variant, how does the abundance fitness read?
Its abundance fitness is -0.493 ± 0.048.

With GRPPQPKSVEDLLDRINLKEHMPTFLFNGYEDLDTFKLLEEEDLDELNIRDPEHRYVLLTAVELLQEYDSN as the variant, how does the abundance fitness read?
The abundance fitness was -0.605 ± 0.054.

Which abundance fitness does the source give for GRPPQPKSVEDLLDRINLKEHMPTFLFNGYEDLDTFKLLEEEDLDELNIRDPEHRKVLLTAVELLQEYDSN here?
The abundance fitness was 0.265 ± 0.038.

Which abundance fitness does the source give for GRPPQPKSVEDLLDRINLKEHMPTFLFNGYEDLDTFKLLEEEDLDELNIRDPEHIAVLLTAVELLQEYDSN here?
The abundance fitness was -0.696 ± 0.078.

For GRPPQPKSVEDLLDRINLKEHMPTFLFNGYEDLDTFKLLEEEDLDELNIRDPEHTAVLLTAVELLQEYDSN, which abundance fitness is on record?
Its abundance fitness is -0.89 ± 0.083.

For GRPPQPKSVEDLLDRINLKEHMPTFLFNGYEDLDTFKLLEEEDLDELNIRDPEHPAVLLTAVELLQEYDSN, which abundance fitness is on record?
Its abundance fitness is -0.895 ± 0.087.

With GRPPQPKSVEDLLDRINLKEHMPTFLFNGYEDLDTFKLLEEEDLDELNIRDPEHMAVLLTAVELLQEYDSN as the variant, how does the abundance fitness read?
The abundance fitness was -0.896 ± 0.1.

For GRPPQPKSVEDLLDRINLKEHMPTFLFNGYEDLDTFKLLEEEDLDELNIRDPEHFAVLLTAVELLQEYDSN, which abundance fitness is on record?
Its abundance fitness is -0.864 ± 0.093.

Which abundance fitness does the source give for GRPPQPKSVEDLLDRINLKEHMPTFLFNGYEDLDTFKLLEEEDLDELNIRDPEHEAVLLTAVELLQEYDSN here?
The abundance fitness was -0.522 ± 0.081.

With GRPPQPKSVEDLLDRINLKEHMPTFLFNGYEDLDTFKLLEEEDLDELNIRDPEHDAVLLTAVELLQEYDSN as the variant, how does the abundance fitness read?
Its abundance fitness is -0.77 ± 0.085.

For GRPPQPKSVEDLLDRINLKEHMPTFLFNGYEDLDTFKLLEEEDLDELNIRDPEHYAVLLTAVELLQEYDSN, which abundance fitness is on record?
The abundance fitness was -0.935 ± 0.093.

With GRPPQPKSVEDLLDRINLKEHMPTFLFNGYEDLDTFKLLEEEDLDELNIRDPEHQAVLLTAVELLQEYDSN as the variant, how does the abundance fitness read?
Its abundance fitness is -0.5 ± 0.071.

Which abundance fitness does the source give for GRPPQPKSVEDLLDRINLKEHMPTFLFNGYEDLDTFKLLEEEDLDELNIRDPEHGAVLLTAVELLQEYDSN here?
Its abundance fitness is -1.02 ± 0.086.

With GRPPQPKSVEDLLDRINLKEHMPTFLFNGYEDLDTFKLLEEEDLDELNIRDPEHAAVLLTAVELLQEYDSN as the variant, how does the abundance fitness read?
The abundance fitness was -0.9 ± 0.082.

Which abundance fitness does the source give for GRPPQPKSVEDLLDRINLKEHMPTFLFNGYEDLDTFKLLEEEDLDELNIRDPEHNAVLLTAVELLQEYDSN here?
The abundance fitness was -0.891 ± 0.086.

With GRPPQPKSVEDLLDRINLKEHMPTFLFNGYEDLDTFKLLEEEDLDELNIRDPEHSAVLLTAVELLQEYDSN as the variant, how does the abundance fitness read?
Its abundance fitness is -0.731 ± 0.06.

Which abundance fitness does the source give for GRPPQPKSVEDLLDRINLKEHMPTFLFNGYEDLDTFKLLEEEDLDELNIRDPEHVAVLLTAVELLQEYDSN here?
Its abundance fitness is -0.591 ± 0.057.

For GRPPQPKSVEDLLDRINLKEHMPTFLFNGYEDLDTFKLLEEEDLDELNIRDPEHLAVLLTAVELLQEYDSN, which abundance fitness is on record?
The abundance fitness was -1.01 ± 0.071.

Which abundance fitness does the source give for GRPPQPKSVEDLLDRINLKEHMPTFLFNGYEDLDTFKLLEEEDLDELNIRDPEHWAVLLTAVELLQEYDSN here?
The abundance fitness was -1.14 ± 0.14.

Which abundance fitness does the source give for GRPPQPKSVEDLLDRINLKEHMPTFLFNGYEDLDTFKLLEEEDLDELNIRDPEHCAVLLTAVELLQEYDSN here?
The abundance fitness was -0.888 ± 0.087.

With GRPPQPKSVEDLLDRINLKEHMPTFLFNGYEDLDTFKLLEEEDLDELNIRDSEHRAVLLTAVELLQEYDSN as the variant, how does the abundance fitness read?
The abundance fitness was -0.354 ± 0.039.

Which abundance fitness does the source give for GRPPQPKSVEDLLDRINLKEHMPTFLFNGYEDLDTFKLLEEEDLDELNIRDYEHRAVLLTAVELLQEYDSN here?
The abundance fitness was -1.02 ± 0.097.

For GRPPQPKSVEDLLDRINLKEHMPTFLFNGYEDLDTFKLLEEEDLDELNIRDVEHRAVLLTAVELLQEYDSN, which abundance fitness is on record?
The abundance fitness was -0.5 ± 0.05.

For GRPPQPKSVEDLLDRINLKEHMPTFLFNGYEDLDTFKLLEEEDLDELNIRDREHRAVLLTAVELLQEYDSN, which abundance fitness is on record?
The abundance fitness was -0.499 ± 0.041.

For GRPPQPKSVEDLLDRINLKEHMPTFLFNGYEDLDTFKLLEEEDLDELNIRDWEHRAVLLTAVELLQEYDSN, which abundance fitness is on record?
Its abundance fitness is -0.782 ± 0.071.
